Results from article PMC4624489.

Columns and labels:
Hfq:E18A-S38W = Hfq:E18A-S38W (Escherichia coli, UniProt P0A6X3 1-102, E18A;S38W); assay: tryptophan fluorescence quenching
Hfq:D9A-S38W = Hfq:D9A-S38W (Escherichia coli, UniProt P0A6X3 1-102, D9A;S38W); assay: tryptophan fluorescence quenching

GUGGUCAGUCGAGUGG (ssRNA) [oligo C]: binds (Hfq:E18A-S38W); binds (Hfq:D9A-S38W).
